US20190083612A1 (RINAT NEUROSCIENCE, published 2019)
Changes are numbered by the printed parent chain.

Tests used:
[1] = biological target: human PD-1 on primary human T cells (human) (UniProt Q15116); assay: cell-based or functional assay
[2] = biological target: T1, rat PD-1 on primary rat T cells (rat, UniProt D3ZIN8 25-287); assay: FACS, activated primary rat T cells
T1 sequence: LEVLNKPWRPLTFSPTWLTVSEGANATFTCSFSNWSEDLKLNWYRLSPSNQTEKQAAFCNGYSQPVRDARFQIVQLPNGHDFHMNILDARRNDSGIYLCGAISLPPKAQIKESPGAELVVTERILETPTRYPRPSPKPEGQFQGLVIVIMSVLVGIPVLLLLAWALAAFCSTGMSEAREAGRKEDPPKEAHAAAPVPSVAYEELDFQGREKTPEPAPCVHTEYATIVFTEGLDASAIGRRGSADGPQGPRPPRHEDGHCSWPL

[3] = biological target: human PD-1 on primary human T cells (human) (UniProt Q15116); assay: FACS, activated primary human T cells
[4] = biological target: human PD-1 on primary human T cells (human) (UniProt Q15116); assay: FACS, naive primary human T cells
[5] = biological target: T1, rat PD-1 on primary rat T cells; assay: FACS, naive primary rat T cells
[6] = biological target: cynomolgus monkey PD-1 on primary cynomolgus monkey T cells (cynomolgus monkey) (UniProt B0LAJ3); assay: FACS, activated primary cynomolgus monkey T cells
[7] = biological target: cynomolgus monkey PD-1 on primary cynomolgus monkey T cells (cynomolgus monkey) (UniProt B0LAJ3); assay: FACS, naive primary cynomolgus monkey T cells
[8] = biological target: T2, human PD-1 (hPD-1) monomer (human, UniProt Q15116 25-167); assay: SPR, human PD-1, 25 C
T2 construct: also called hu-PD-1; not shown: His tag (His-tagged monomer)

[9] = biological target: T3, cynoPD-1-hFc1 (prepared in-house) (cynomolgus monkey; human, UniProt B0LAJ3 25-170); assay: SPR (Biacore 2000), Fab over anti-hFc-captured PD-1-hFc1, 25 C
Experimental: (§1) All interaction analysis was performed on label-free biosensors at 25° C. unless stated otherwise. Surface plasmon resonance biosensors (ProteOn-XPR™ from BioRad™, and Biacore 2000™ and Biacore T200™ from GE Life Sciences) were used to study human and cynomolgus monkey PD-1 and a biolayer interferometry biosensor (Octet-Red384, Fortebio/Pall Life Sciences) was used to study mouse PD-1. ProteOn experiments were performed in PBS pH 7.4+0.01% Tween-20 (PBST) running buffer. Biacore experiments were performed in 10 mM Hepes pH 7.4, 150 mM NaCl, 0.05% Tween-20 (HBST+) and Octet experiments were performed in HBST+ with 1 g/l BSA. The ProteOn data were processed in the ProteOn Manager software, the Biacore data were processed in Biaevaluation, and the Octet data were simply aligned to zero in the control software.
(§2) An anti-hFc polyclonal antibody was amine-coupled to the chip and used to capture approximately 90 RU hPD-1-hFc1 and 125 RU cynoPD-1-hFc1 on flow cells 2 and 3, leaving flow cell 1 blank (naked anti-hFc capture surface) to provide a reference channel. Recombinant purified Fabs were injected for two min as analyte at 0, 10, and 100 nM over freshly captured PD-1-hFc1 fusion proteins, allowing a 15-min dissociation time.

[10] = biological target: T4, hPD-1-hFc1 (R&D systems cat. no. 1086PD) (human, UniProt Q15116 25-167); assay: as above
T4 construct: Bought; not shown: human IgG1 Fc (hFc1)
Experimental: as §1, §2

[11] = biological target: T3, cynoPD-1-hFc1 (prepared in-house); assay: SPR (Biacore 2000), Fab over anti-hFc-captured PD-1-hFc1, 25 C; 5% rule
Experimental: as §2

[12] = biological target: T4, hPD-1-hFc1 (R&D systems cat. no. 1086PD); assay: as above
Experimental: as §2

[13] = biological target: T2, human PD-1 (hPD-1) monomer; assay: SPR (Biacore T200), hPD-1 monomer over anti-hFc-captured hIgG4, 37 C
Experimental: (§3) The hPD-1 was injected at active concentrations of 0, 10, and 100 nM for three minutes allowing an 18-min dissociation phase. The capture surfaces were regenerated with 75 mM phosphoric acid after each binding cycle.

[14] = biological target: T2, human PD-1 (hPD-1) monomer; assay: SPR (Biacore T200), hPD-1 monomer over anti-hFc-captured hIgG4, 25 C
Experimental: as §1, §3

[15] = biological target: T2, human PD-1 (hPD-1) monomer; assay: SPR (ProteOn), hPD-1 monomer over amine-coupled IgG, 25 C; 5% rule
Experimental: (§4) The surfaces for these experiments were prepared in three steps; (1) the ligand channels were minimally activated for two min using a freshly prepared mixture of the activation reagents at final 0.8 mM EDC and 0.2 mM sulfo-NHS in water, (2) the IgGs were coupled for three min at 15 μg/ml in 10 mM sodium acetate pH 4.5, and (3) excess reactive esters were blocked for three min with 1 M ethanolamine HCl pH 8.5. […] Association and dissociation times were 3 min and 20 min, respectively and all analytes were injected in duplicate binding cycles. Surfaces were regenerated with a cocktail of 2:1 v/v Pierce IgG elution buffer (pH 2.8):4 M NaCl.
N=2 refers to two independent experiments on different chips.

[16] = biological target: T2, human PD-1 (hPD-1) monomer; assay: SPR (ProteOn), hPD-1 monomer over amine-coupled IgG, 25 C
Experimental: as §1, §4

T2 sequence (Q15116 25-167 limits assumed): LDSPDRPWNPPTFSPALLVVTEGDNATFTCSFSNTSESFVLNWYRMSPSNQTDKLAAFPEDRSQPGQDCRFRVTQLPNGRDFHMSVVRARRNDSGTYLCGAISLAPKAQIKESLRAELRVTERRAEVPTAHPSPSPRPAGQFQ
T4 sequence (Q15116 25-167 limits assumed): as above
T3 sequence (B0LAJ3 entry or part of it limits assumed): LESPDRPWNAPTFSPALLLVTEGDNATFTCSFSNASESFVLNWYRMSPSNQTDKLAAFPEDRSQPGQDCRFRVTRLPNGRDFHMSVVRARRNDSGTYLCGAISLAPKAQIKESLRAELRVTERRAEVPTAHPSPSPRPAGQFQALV
human PD-1 on primary human T cells (human), sequence (Q15116 25-288 limits assumed): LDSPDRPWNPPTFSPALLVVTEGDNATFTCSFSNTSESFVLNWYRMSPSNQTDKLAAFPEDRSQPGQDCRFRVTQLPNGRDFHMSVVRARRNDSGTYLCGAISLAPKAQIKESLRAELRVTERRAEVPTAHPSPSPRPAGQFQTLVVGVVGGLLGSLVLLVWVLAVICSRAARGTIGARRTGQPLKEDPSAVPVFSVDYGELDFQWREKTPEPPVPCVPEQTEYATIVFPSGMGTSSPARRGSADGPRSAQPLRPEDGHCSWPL
cynomolgus monkey PD-1 on primary cynomolgus monkey T cells (cynomolgus monkey), sequence (B0LAJ3 entry or part of it limits assumed): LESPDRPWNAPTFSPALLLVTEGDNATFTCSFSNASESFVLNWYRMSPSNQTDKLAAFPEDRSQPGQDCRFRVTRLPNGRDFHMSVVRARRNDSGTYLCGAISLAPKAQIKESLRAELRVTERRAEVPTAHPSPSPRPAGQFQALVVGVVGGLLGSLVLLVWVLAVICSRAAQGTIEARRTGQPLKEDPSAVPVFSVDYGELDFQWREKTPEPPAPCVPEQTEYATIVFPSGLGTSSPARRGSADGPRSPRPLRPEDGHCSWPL

EH12.1 (BD Biosciences mouse anti human anti-PD-1 antibody, mouse isotype IgG1 Kappa)
IFNγ (pg/ml), MLR day 5, antibody 0.0001 µg/ml [1]: 1700 pg/mL | IFNγ (pg/ml), MLR day 5, antibody 0.001 µg/ml [1]: 2280 pg/mL | IFNγ (pg/ml), MLR day 5, antibody 0.01 µg/ml [1]: 4380 pg/mL | IFNγ (pg/ml), MLR day 5, antibody 0.1 µg/ml [1]: 4730 pg/mL | IFNγ (pg/ml), MLR day 5, antibody 1 µg/ml [1]: 9910 pg/mL | IFNγ (pg/ml), MLR day 5, antibody 10 µg/ml [1]: 15100 pg/mL | TNF (pg/ml), MLR day 5, antibody 0.0001 µg/ml [1]: 753 pg/mL | TNF (pg/ml), MLR day 5, antibody 0.001 µg/ml [1]: 687 pg/mL | TNF (pg/ml), MLR day 5, antibody 0.01 µg/ml [1]: 859 pg/mL | TNF (pg/ml), MLR day 5, antibody 0.1 µg/ml [1]: 745 pg/mL | TNF (pg/ml), MLR day 5, antibody 1 µg/ml [1]: 979 pg/mL | TNF (pg/ml), MLR day 5, antibody 10 µg/ml [1]: 1950 pg/mL

Negative control antibody (anti-bovine herpes virus, IgG4-HG framework)
% Binding [2]: 4.36% | % Binding [3]: 4.75% | % Binding [4]: 3.49% | % Binding [5]: 0.82% | % Binding [6]: 4.67% | % Binding [7]: 5.38%

B1: mAb2 (antibody, V domains shown)
VH: QVQLVQSGAEVKKPGASVKVSCKASGYTFTSYWINWVRQAPGQGLEWMGNIYPGSSLTNYNEKFKNRVTMTRDTSTSTVYMELSSLRSEDTAVYYCARLLTGTFAYWGQGTLVTVSS
VL: DIVMTQSPDSLAVSLGERATINCKSSQSLWDSGNQKNFLTWYQQKPGQPPKLLIYWTSYRESGVPDRFSGSGSGTDFTLTISSLQAEDVAVYYCQNDYFYPLTFGGGTKVEIK
notes: Variable regions only
Kd [8]: 2.22 nM

B2: mAb7 Fab (Fab, V domains shown)
VH: B1 VH with L100S
VL: B1 VL with L102H
Kd [9]: < 0.108 nM | kon [9]: 526000 M⁻¹ s⁻¹ | Kd [10]: < 0.101 nM | kon [10]: 567000 M⁻¹ s⁻¹ | koff [11]: < 5.7e-05 s⁻¹ | koff [12]: < 5.7e-05 s⁻¹

B3: mAb14 (antibody, V domains shown)
VH: B1 VH with Y52W
VL: B1 VL
notes: Variable regions only
Kd [8]: 0.6 nM

B4: mAb12 (antibody, V domains shown)
VH: B1 VH with L57I, L100T
VL: B1 VL with G33T, Y59T
notes: Variable regions only
Kd [8]: 17.3 nM

B5: mAb5 (antibody, V domains shown)
VH: B1 VH with L100S
VL: B1 VL with Y59T
notes: Variable regions only
Kd [8]: 12.8 nM

B6: mAb15 (human IgG4 kappa, hinge stabilized) (antibody, V domains shown)
VH: B1 VH with Y52W
VL: B1 VL with L102H
notes: also called mAb15-G4; mAb15 (G4)
Kd [13]: 0.54 nM | koff [13]: 0.000373 s⁻¹ | kon [13]: 694000 M⁻¹ s⁻¹ | Kd [14]: 0.49 nM | koff [14]: 0.000171 s⁻¹ | kon [14]: 349000 M⁻¹ s⁻¹ | Kd [8]: 0.49 nM | koff [15]: < 4.3e-05 s⁻¹ | Kd [16]: < 0.058 nM | kon [16]: 732000 M⁻¹ s⁻¹

B7: mAb9 (antibody, V domains shown)
VH: B1 VH with L57I, L100T
VL: B1 VL with Y59T
notes: Variable regions only
Kd [8]: 13.5 nM

B8: mAb16 (antibody, V domains shown)
VH: B1 VH with Y52W
VL: B1 VL with G33T, Y59T
notes: Variable regions only
Kd [8]: 7.51 nM

B9: mAb3 (antibody, V domains shown)
VH: B1 VH
VL: B1 VL with L102H
notes: Variable regions only
Kd [8]: 1.43 nM

B10: mAb15 IgG1 AAA (antibody, V domains shown)
VH: B1 VH with Y52W
VL: B1 VL with L102H
notes: also called mAb15-AAA
koff [15]: < 4.3e-05 s⁻¹ | Kd [16]: < 0.053 nM | kon [16]: 813000 M⁻¹ s⁻¹

B11: mAb1 (antibody, V domains shown)
VH: B1 VH
VL: B1 VL with Y59T
notes: Variable regions only
Kd [8]: 64.2 nM

B12: mAb10 (antibody, V domains shown)
VH: B1 VH with L57I, L100T
VL: B1 VL
notes: Variable regions only
Kd [8]: 0.98 nM

B13: mAb7 IgG1 AAA (antibody, V domains shown)
VH: B1 VH with L100S
VL: B1 VL with L102H
notes: also called mAb7-AAA
koff [15]: < 4.3e-05 s⁻¹ | Kd [16]: < 0.086 nM | kon [16]: 497000 M⁻¹ s⁻¹

B14: mAb6 (antibody, V domains shown)
VH: B1 VH with L100S
VL: B1 VL
notes: Variable regions only
Kd [8]: 1.16 nM

B15: mAb8 (antibody, V domains shown)
VH: B1 VH with L100S
VL: B1 VL with G33T, Y59T
notes: Variable regions only
Kd [8]: 17.4 nM

B16: mAb13 (antibody, V domains shown)
VH: B1 VH with Y52W
VL: B1 VL with Y59T
notes: Variable regions only
Kd [8]: 5.87 nM

B17: mAb11 (antibody, V domains shown)
VH: B1 VH with L57I, L100T
VL: B1 VL with L102H
notes: Variable regions only
Kd [8]: 0.93 nM

B18: mAb15 Fab (Fab, V domains shown)
VH: B1 VH with Y52W
VL: B1 VL with L102H
Kd [9]: < 0.069 nM | kon [9]: 824000 M⁻¹ s⁻¹ | Kd [10]: < 0.062 nM | kon [10]: 916000 M⁻¹ s⁻¹ | koff [11]: < 5.7e-05 s⁻¹ | koff [12]: < 5.7e-05 s⁻¹
